Experimental data as given in publication doi:10.1101/2025.03.09.641110 (bioRxiv, 2025).

The binders below were run against extracellular domain of human PD-1 (Programmed cell death protein 1) (Homo sapiens, UniProt Q15116) (assay: SPR).
extracellular domain of human PD-1 (Programmed cell death protein 1), sequence (Q15116 25-170): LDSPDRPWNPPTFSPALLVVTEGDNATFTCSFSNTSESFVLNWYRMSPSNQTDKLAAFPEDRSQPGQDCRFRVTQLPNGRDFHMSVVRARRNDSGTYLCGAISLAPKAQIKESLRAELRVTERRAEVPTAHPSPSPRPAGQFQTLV

Row | Binder | Kd [nM]
1 | ALX07xh-05 (direct CDR-grafted humanized ALX07) (antibody, V domains shown) VH: QVTLKESGPALVKPTQTLTLTCTFSGFSLSTSALGVGWIRQPPGKALEWLAHIWWNDVKRSNPALKGRLTISKDTSKNQVVLTMTNMDPVDTATYYCARSYGNHWYFDVWGQGTLVTVSS VL: DIVMTQSPDSLAVSLGERATINCKASQSVSNDVAWYQQKPGQPPKLLIYYAFTRYIGVPDRFSGSGSGTDFTLTISSLQAEDVAVYYCQQDYISPYTFGQGTKLEIK | 140
2 | humanized ALX07 (CDR graft) with the S67Y back mutation in the light chain alone (antibody, V domains shown) VH: QVTLKESGPALVKPTQTLTLTCTFSGFSLSTSALGVGWIRQPPGKALEWLAHIWWNDVKRSNPALKGRLTISKDTSKNQVVLTMTNMDPVDTATYYCARSYGNHWYFDVWGQGTLVTVSS VL: DIVMTQSPDSLAVSLGERATINCKASQSVSNDVAWYQQKPGQPPKLLIYYAFTRYIGVPDRFSGSGYGTDFTLTISSLQAEDVAVYYCQQDYISPYTFGQGTKLEIK | 2.01
3 | chimeric ALX07 (murine ALX07 variable regions, IgG4 chimeric antibody) (antibody, V domains shown) VH: QVTLKESGPGILQPSQTLSLTCSFSGFSLSTSALGVGWIRQPPGKGLVWLAHIWWNDVKRSNPALKGRLTISKDTSSSQVFLNIANVDTADTATYYCARSYGNHWYFDVWGAGTTVTVSS VL: SVVMTQTPKFLLVSAGDRVTIACKASQSVSNDVAWFQQKPGQSPKLLIYYAFTRYIGVPDRFTASGYGTDFTFTISTVQAEDLAIYFCQQDYISPYTFGGGTKLEIK | 1.31
